Experimental findings from patent US20180280532A1 are described below.

This assay concerns the target human Trop-2 (human) (UniProt P09758). In words: cell binding assay, cell line not named.

human Trop-2 (human), sequence (P09758 27-323): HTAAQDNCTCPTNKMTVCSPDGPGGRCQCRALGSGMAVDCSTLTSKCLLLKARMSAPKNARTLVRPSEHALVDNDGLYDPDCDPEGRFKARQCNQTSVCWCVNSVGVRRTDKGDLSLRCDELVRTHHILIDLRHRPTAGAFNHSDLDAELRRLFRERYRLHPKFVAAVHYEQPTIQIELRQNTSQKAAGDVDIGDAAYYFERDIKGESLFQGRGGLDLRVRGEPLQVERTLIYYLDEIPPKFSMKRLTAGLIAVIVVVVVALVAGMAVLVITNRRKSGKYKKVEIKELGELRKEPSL

Consider hRS7-CL2A-SN-38 (antibody), for which the Kd was determined as 1.2 nM.
